Experimental data: patent publication US20230002480A1

How the values were obtained:
Assay in all cases: cell-based or functional assay
[1] = biological target: HIV-1 Env of pseudovirus 0815.v3.c3 (HIV-1)
[2] = biological target: HIV-1 Env of pseudovirus 191084 B7-19 (HIV-1)
[3] = biological target: HIV-1 Env of pseudovirus 191955_A11 (HIV-1)
[4] = biological target: HIV-1 Env of pseudovirus 263-8 (HIV-1)
[5] = biological target: HIV-1 Env of pseudovirus 3016.v5.c45 (HIV-1)
[6] = biological target: HIV-1 Env of pseudovirus 3103.v3.c10 (HIV-1)
[7] = biological target: HIV-1 Env of pseudovirus 3301.v1.c24 (HIV-1)
[8] = biological target: HIV-1 Env of pseudovirus 89-F1_2_25 (HIV-1)
[9] = biological target: HIV-1 Env of pseudovirus 9004SS_A3_4 (HIV-1)
[10] = biological target: HIV-1 Env of pseudovirus 928-28 (HIV-1)
[11] = biological target: HIV-1 Env of pseudovirus BJOX009000.02.4 (HIV-1)
[12] = biological target: HIV-1 Env of pseudovirus BJOX015000.11.5 (HIV-1)
[13] = biological target: HIV-1 Env of pseudovirus R2184.c04 (HIV-1)
[14] = biological target: HIV-1 Env of pseudovirus T250-4 (HIV-1)
[15] = biological target: HIV-1 Env of pseudovirus T257-31 (HIV-1)
[16] = biological target: HIV-1 Env of pseudovirus T278-50 (HIV-1)
[17] = biological target: HIV-1 Env of pseudovirus X1193_c1 (HIV-1)
[18] = biological target: HIV-1 Env of pseudovirus 1056_10_TA11_1826 (HIV-1)
[19] = biological target: HIV-1 Env of pseudovirus 1394C9G1(Rev-) (HIV-1)
[20] = biological target: HIV-1 Env of pseudovirus 249M B10 (HIV-1)
[21] = biological target: HIV-1 Env of pseudovirus 6240_08_TA5_4622 (HIV-1)
[22] = biological target: HIV-1 Env of pseudovirus 6535.3 (HIV-1)
[23] = biological target: HIV-1 Env of pseudovirus CAP45.2.00.G3 (HIV-1)
[24] = biological target: HIV-1 Env of pseudovirus CNE17 (HIV-1)
[25] = biological target: HIV-1 Env of pseudovirus CNE53 (HIV-1)
[26] = biological target: HIV-1 Env of pseudovirus Ce2060_G9 (HIV-1)
[27] = biological target: HIV-1 Env of pseudovirus Du156.12 (HIV-1)
[28] = biological target: HIV-1 Env of pseudovirus Du422.1 (HIV-1)
[29] = biological target: HIV-1 Env of pseudovirus HIV-0013095-2.11 (HIV-1)
[30] = biological target: HIV-1 Env of pseudovirus HIV-001428-2.42 (HIV-1)
[31] = biological target: HIV-1 Env of pseudovirus PVO.4 (HIV-1)
[32] = biological target: HIV-1 Env of pseudovirus Q23.17 (HIV-1)
[33] = biological target: HIV-1 Env of pseudovirus Q461.e2 (HIV-1)
[34] = biological target: HIV-1 Env of pseudovirus Q769.d22 (HIV-1)
[35] = biological target: HIV-1 Env of pseudovirus Q842.d12 (HIV-1)
[36] = biological target: HIV-1 Env of pseudovirus TRJO4551.58 (HIV-1)
[37] = biological target: HIV-1 Env of pseudovirus ZM247v1(Rev-) (HIV-1)

N49P18.1 (antibody)
IC50 [1]: 0.741 µg/mL | IC80 [1]: 8.45 µg/mL | MPI [1]: 99 | IC50 [2]: 5.59 µg/mL | IC80 [2]: 16.9 µg/mL | MPI [2]: 98 | IC50 [3]: > 50 µg/mL | IC80 [3]: > 50 µg/mL | MPI [3]: 33 | IC50 [4]: 3.96 µg/mL | IC80 [4]: 41 µg/mL | MPI [4]: 90 | IC50 [5]: > 50 µg/mL | IC80 [5]: > 50 µg/mL | MPI [5]: 49 | IC50 [6]: 8.56 µg/mL | IC80 [6]: 32.4 µg/mL | MPI [6]: 93 | IC50 [7]: 3.25 µg/mL | IC80 [7]: 11.3 µg/mL | MPI [7]: 99 | IC50 [8]: > 50 µg/mL | IC80 [8]: > 50 µg/mL | MPI [8]: 9 | IC50 [9]: 3.02 µg/mL | IC80 [9]: 13.9 µg/mL | MPI [9]: 99 | IC50 [10]: 22.7 µg/mL | IC80 [10]: > 50 µg/mL | MPI [10]: 71 | IC50 [11]: 0.418 µg/mL | IC80 [11]: 1.43 µg/mL | MPI [11]: 100 | IC50 [12]: 27.3 µg/mL | IC80 [12]: > 50 µg/mL | MPI [12]: 67 | IC50 [13]: 3.38 µg/mL | IC80 [13]: 11.8 µg/mL | MPI [13]: 100 | IC50 [14]: 4.86 µg/mL | IC80 [14]: 15.1 µg/mL | MPI [14]: 94 | IC50 [15]: > 50 µg/mL | IC80 [15]: > 50 µg/mL | MPI [15]: 48 | IC50 [16]: > 50 µg/mL | IC80 [16]: > 50 µg/mL | MPI [16]: 36 | IC50 [17]: 3.12 µg/mL | IC80 [17]: 23.9 µg/mL | MPI [17]: 94

PGT151 (antibody)
IC50, titer in TZM.bl cells [1]: > 50 µg/mL | IC80, titer in TZM.bl cells [1]: > 50 µg/mL | IC50 [18]: 0.008 µg/mL | IC80 [18]: 0.048 µg/mL | IC50 [19]: 0.022 µg/mL | IC80 [19]: 0.733 µg/mL | IC50 [2]: 0.004 µg/mL | IC80 [2]: 0.016 µg/mL | IC50 [3]: 0.004 µg/mL | IC80 [3]: 0.014 µg/mL | IC50 [20]: 0.007 µg/mL | IC80 [20]: 0.023 µg/mL | IC50 [4]: > 50 µg/mL | IC80 [4]: > 50 µg/mL | IC50, titer in TZM.bl cells [5]: 0.174 µg/mL | IC80, titer in TZM.bl cells [5]: 40.7 µg/mL | IC50, titer in TZM.bl cells [6]: 0.014 µg/mL | IC80, titer in TZM.bl cells [6]: 0.202 µg/mL | IC50, titer in TZM.bl cells [7]: 0.002 µg/mL | IC80, titer in TZM.bl cells [7]: 0.019 µg/mL | IC50 [21]: 0.046 µg/mL | IC80 [21]: 0.42 µg/mL | IC50 [22]: < 0.001 µg/mL | IC80 [22]: 0.012 µg/mL | IC50, titer in TZM.bl cells [8]: 22.9 µg/mL | IC80, titer in TZM.bl cells [8]: > 50 µg/mL | IC50 [9]: 0.003 µg/mL | IC80 [9]: 0.015 µg/mL | IC50 [10]: > 50 µg/mL | IC80 [10]: > 50 µg/mL | IC50, titer in TZM.bl cells [11]: > 50 µg/mL | IC80, titer in TZM.bl cells [11]: > 50 µg/mL | IC50, titer in TZM.bl cells [12]: > 50 µg/mL | IC80, titer in TZM.bl cells [12]: > 50 µg/mL | IC50 [23]: 0.007 µg/mL | IC80 [23]: > 50 µg/mL | IC50 [24]: 0.093 µg/mL | IC80 [24]: > 50 µg/mL | IC50 [25]: > 50 µg/mL | IC80 [25]: > 50 µg/mL | IC50 [26]: 0.135 µg/mL | IC80 [26]: > 50 µg/mL | IC50 [27]: 0.005 µg/mL | IC80 [27]: 0.023 µg/mL | IC50 [28]: 4.6 µg/mL | IC80 [28]: > 50 µg/mL | IC50 [29]: > 50 µg/mL | IC80 [29]: > 50 µg/mL | IC50 [30]: 0.027 µg/mL | IC80 [30]: > 50 µg/mL | IC50 [31]: 0.017 µg/mL | IC80 [31]: > 50 µg/mL | IC50 [32]: 0.007 µg/mL | IC80 [32]: 0.045 µg/mL | IC50 [33]: 12.6 µg/mL | IC80 [33]: > 50 µg/mL | IC50 [34]: > 50 µg/mL | IC80 [34]: > 50 µg/mL | IC50 [35]: 0.001 µg/mL | IC80 [35]: 0.014 µg/mL | IC50, titer in TZM.bl cells [13]: > 50 µg/mL | IC80, titer in TZM.bl cells [13]: > 50 µg/mL | IC50 [14]: 0.005 µg/mL | IC80 [14]: 0.014 µg/mL | IC50 [15]: 0.003 µg/mL | IC80 [15]: 0.01 µg/mL | IC50, titer in TZM.bl cells [16]: 0.13 µg/mL | IC80, titer in TZM.bl cells [16]: > 50 µg/mL | IC50 [36]: 0.496 µg/mL | IC80 [36]: 4.22 µg/mL | IC50, titer in TZM.bl cells [17]: 0.004 µg/mL | IC80, titer in TZM.bl cells [17]: 0.027 µg/mL | IC50 [37]: 0.009 µg/mL | IC80 [37]: > 50 µg/mL
